{"source": "the supplement of paper PMC10567573", "parents": {"B1": {"name": "LMNB1 (parent)", "chain": "LYKEELEQTYHAKLENARLSSEMN"}, "B2": {"name": "DYRK1B (parent)", "chain": "YQGPGTRRLQEVLGVQTGGPGGRR"}}, "data": [{"variants_of": "B1", "experiment": "protein stability index of a GFP-peptide fusion (GPS, HEK-293T) (PSI 1-6); higher = more stable", "conditions": "c terminus: a fixed tail appended", "values": [{"variant": "E22Y", "protein stability index": 2.4}, {"variant": "E22H", "protein stability index": 2.22}, {"variant": "E22P", "protein stability index": 2.4}, {"variant": "E22Q", "protein stability index": 2.73}, {"variant": "E22C", "protein stability index": 2.83}, {"variant": "E5F", "protein stability index": 2.28}, {"variant": "E5S", "protein stability index": 2.4}, {"variant": "E5K", "protein stability index": 3.09}, {"variant": "R18L", "protein stability index": 2.81}, {"variant": "R18A", "protein stability index": 3.26}, {"variant": "R18D", "protein stability index": 3.7}, {"variant": "R18C", "protein stability index": 2.6}, {"variant": "R18K", "protein stability index": 3.31}, {"variant": "R18P", "protein stability index": 3.62}, {"variant": "R18I", "protein stability index": 2.27}, {"variant": "R18E", "protein stability index": 3.72}, {"variant": "R18W", "protein stability index": 1.08}, {"variant": "R18N", "protein stability index": 3.83}, {"variant": "R18F", "protein stability index": 2.17}, {"variant": "L6C", "protein stability index": 3.8}, {"variant": "L6A", "protein stability index": 4.29}, {"variant": "L6D", "protein stability index": 4.72}, {"variant": "L6G", "protein stability index": 3.81}, {"variant": "L6E", "protein stability index": 4.49}, {"variant": "L6Q", "protein stability index": 5.03}, {"variant": "A12Q", "protein stability index": 4.25}, {"variant": "A12L", "protein stability index": 3.17}, {"variant": "A12S", "protein stability index": 4.29}, {"variant": "A12M", "protein stability index": 2.36}, {"variant": "A12H", "protein stability index": 3.71}, {"variant": "A12N", "protein stability index": 4.38}, {"variant": "L14A", "protein stability index": 4.49}, {"variant": "L14M", "protein stability index": 3.09}, {"variant": "L14Y", "protein stability index": 3.51}, {"variant": "L14S", "protein stability index": 4.66}, {"variant": "S20T", "protein stability index": 2.74}, {"variant": "S20I", "protein stability index": 2.81}, {"variant": "S20R", "protein stability index": 3.26}, {"variant": "S20H", "protein stability index": 2.73}, {"variant": "S20Y", "protein stability index": 1.93}, {"variant": "S20M", "protein stability index": 2.58}, {"variant": "S20L", "protein stability index": 3.38}, {"variant": "S20Q", "protein stability index": 2.91}, {"variant": "S20N", "protein stability index": 3.07}, {"variant": "S20E", "protein stability index": 2.04}, {"variant": "Y10P", "protein stability index": 4.4}, {"variant": "Y10T", "protein stability index": 4.66}, {"variant": "Y10N", "protein stability index": 4.67}, {"variant": "Y10D", "protein stability index": 4.97}, {"variant": "Y10S", "protein stability index": 4.49}, {"variant": "N24V", "protein stability index": 2.26}, {"variant": "N24D", "protein stability index": 3.25}, {"variant": "N24R", "protein stability index": 3.11}, {"variant": "N24T", "protein stability index": 2.46}, {"variant": "N24L", "protein stability index": 2.51}, {"variant": "N24S", "protein stability index": 2.64}, {"variant": "T9D", "protein stability index": 4.61}, {"variant": "T9P", "protein stability index": 4.23}, {"variant": "T9F", "protein stability index": 2.57}, {"variant": "T9N", "protein stability index": 3.88}, {"variant": "T9W", "protein stability index": 3.65}, {"variant": "T9Q", "protein stability index": 3.77}, {"variant": "E15W", "protein stability index": 1.94}, {"variant": "E15Q", "protein stability index": 2.58}, {"variant": "E15Y", "protein stability index": 2.47}, {"variant": "E15M", "protein stability index": 1.94}, {"variant": "E15K", "protein stability index": 2.98}, {"variant": "E15I", "protein stability index": 2.44}, {"variant": "E15A", "protein stability index": 2.61}, {"variant": "E15F", "protein stability index": 2.38}, {"variant": "E15D", "protein stability index": 3.48}, {"variant": "Y2H", "protein stability index": 4}, {"variant": "Y2F", "protein stability index": 1.96}, {"variant": "Y2C", "protein stability index": 2.78}, {"variant": "Y2G", "protein stability index": 4.15}, {"variant": "Y2E", "protein stability index": 4.37}, {"variant": "Y2L", "protein stability index": 3.04}, {"variant": "Y2R", "protein stability index": 3.48}, {"variant": "Y2T", "protein stability index": 4.08}, {"variant": "N16Q", "protein stability index": 3.32}, {"variant": "N16V", "protein stability index": 2.3}, {"variant": "N16M", "protein stability index": 3.03}, {"variant": "N16G", "protein stability index": 2.27}, {"variant": "N16P", "protein stability index": 3.33}, {"variant": "N16S", "protein stability index": 2.42}, {"variant": "N16C", "protein stability index": 2.48}, {"variant": "L1G", "protein stability index": 3.53}, {"variant": "L1N", "protein stability index": 2.98}, {"variant": "L1Y", "protein stability index": 3.24}, {"variant": "L1A", "protein stability index": 2.92}, {"variant": "L1D", "protein stability index": 4.03}, {"variant": "L1R", "protein stability index": 2.91}, {"variant": "Q8L", "protein stability index": 2.38}, {"variant": "Q8I", "protein stability index": 2.52}, {"variant": "Q8C", "protein stability index": 2.86}, {"variant": "Q8T", "protein stability index": 3.21}, {"variant": "Q8S", "protein stability index": 2.56}, {"variant": "Q8K", "protein stability index": 2.49}, {"variant": "Q8V", "protein stability index": 2.09}, {"variant": "Q8H", "protein stability index": 2.08}, {"variant": "Q8M", "protein stability index": 2.5}, {"variant": "H11S", "protein stability index": 4.06}, {"variant": "H11C", "protein stability index": 3.73}, {"variant": "H11I", "protein stability index": 3.12}, {"variant": "H11V", "protein stability index": 3.53}, {"variant": "H11L", "protein stability index": 2.84}, {"variant": "H11M", "protein stability index": 3.45}, {"variant": "H11W", "protein stability index": 3.08}, {"variant": "H11P", "protein stability index": 3.91}, {"variant": "H11N", "protein stability index": 3.14}, {"variant": "H11R", "protein stability index": 2.88}, {"variant": "S21E", "protein stability index": 3.18}, {"variant": "S21C", "protein stability index": 2.02}, {"variant": "S21W", "protein stability index": 1.82}, {"variant": "S21I", "protein stability index": 2.35}, {"variant": "S21R", "protein stability index": 2.25}, {"variant": "S21H", "protein stability index": 2.59}, {"variant": "S21Y", "protein stability index": 2.1}, {"variant": "M23L", "protein stability index": 2.19}, {"variant": "M23Q", "protein stability index": 3.04}, {"variant": "M23Y", "protein stability index": 1.6}, {"variant": "M23C", "protein stability index": 2.76}, {"variant": "M23E", "protein stability index": 2.89}, {"variant": "M23S", "protein stability index": 2.87}, {"variant": "M23V", "protein stability index": 2.46}, {"variant": "L19P", "protein stability index": 2.74}, {"variant": "L19T", "protein stability index": 3.6}, {"variant": "L19G", "protein stability index": 3.88}, {"variant": "L19E", "protein stability index": 4.75}, {"variant": "K3G", "protein stability index": 2.73}, {"variant": "K13A", "protein stability index": 3.93}, {"variant": "K13G", "protein stability index": 4.57}, {"variant": "K13W", "protein stability index": 2.65}, {"variant": "K13H", "protein stability index": 3.08}, {"variant": "K13M", "protein stability index": 2.48}, {"variant": "E7K", "protein stability index": 2.77}, {"variant": "E7N", "protein stability index": 3.38}, {"variant": "E7V", "protein stability index": 3.05}, {"variant": "E7M", "protein stability index": 2.07}, {"variant": "E7A", "protein stability index": 2.47}, {"variant": "E7P", "protein stability index": 3.35}, {"variant": "E7G", "protein stability index": 3.23}, {"variant": "E7Q", "protein stability index": 3.4}, {"variant": "E7W", "protein stability index": 2.34}, {"variant": "E7R", "protein stability index": 3.44}, {"variant": "E4F", "protein stability index": 2.37}, {"variant": "E4C", "protein stability index": 2.38}, {"variant": "E4G", "protein stability index": 2.38}, {"variant": "E4Y", "protein stability index": 2.08}, {"variant": "A17Y", "protein stability index": 2.2}, {"variant": "A17V", "protein stability index": 1.41}, {"variant": "A17C", "protein stability index": 1.82}, {"variant": "A17L", "protein stability index": 2.44}, {"variant": "A17K", "protein stability index": 3.9}]}, {"variants_of": "B2", "experiment": "protein stability index of a GFP-peptide fusion (GPS, HEK-293T) (PSI 1-6); higher = more stable", "conditions": "c terminus: a fixed tail appended", "values": [{"variant": "R7C", "protein stability index": 1.51}, {"variant": "R7D", "protein stability index": 3.7}, {"variant": "R7Y", "protein stability index": 3.1}, {"variant": "R7S", "protein stability index": 3.45}, {"variant": "R7I", "protein stability index": 3.57}, {"variant": "R7G", "protein stability index": 3.37}, {"variant": "R7P", "protein stability index": 3.5}, {"variant": "R7F", "protein stability index": 2.04}, {"variant": "R7A", "protein stability index": 3.68}, {"variant": "R7H", "protein stability index": 3.42}, {"variant": "R7T", "protein stability index": 3.54}, {"variant": "R7Q", "protein stability index": 3.76}, {"variant": "R7E", "protein stability index": 4.05}]}]}
